# System: K4 kissing-loop RNA reporter
# Assay: apparent KD of K4 kissing-loop reporter; higher = weaker reporter binding
# Settings: Eterna round: R107
# Method: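 RNA-MaP round R107: designed RNA switches with theophylline, tryptophan, arginine or FMN aptamers are transcribed on-chip within common flanks. They are titrated with a labelled K4 kissing-loop RNA reporter in RNA-MaP buffer (100 mM Tris pH 7.5, 80 mM KCl, 4 mM MgCl2), without ligand or with the indicated ligand. Median apparent KD per design.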
# [1] = input ligand: theophylline 20 uM
# [2] = input ligand: tryptophan 2.4 mM
# 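Also: bound reporter read as fluorescence of individual clusters on recovered sequencing chips by microscopy, with normalized cluster intensities fitted with a binding model.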
Sequence,apparent KD of K4 kissing-loop reporter (input ligand: FMN 200 uM) [nM],apparent KD of K4 kissing-loop reporter (input ligand: arginine 13.2 mM) [nM],apparent KD of K4 kissing-loop reporter (input ligand: none) [nM],apparent KD of K4 kissing-loop reporter [1] [nM],apparent KD of K4 kissing-loop reporter [2] [nM]
CCGUGGAGUGAUGUUCCACGUUCUACGGAUACCAGCCACGCCAGCGGCCCUUGGCAGCCGCACCUUGCAGUGAUGUUGUGAGGCU [Same State Theophylline A GF 5],365,312,349,330,302
UGUCAUUGGUCUGAUACCAGGUUGAUCGGUAAACGAUCUCCUGGAGUGAUGUUCCAAAAUAUCCCUUGGCAGCAGACCGAUGACU [TheoBS 6 #SwitchBubble #StaticStem],571,320,545,492,350
AUUUAGACGAGUGAUGUUCGUGAUUUUUCAGAGGAUAUGCGUAAUAGCAGAAGGCUGUAUUUAUAUAUAUUUUGAUUUUUUUAAA [JR_ExcFMNA_Sub009],69.6,81.6,59.5,82.8,62.3
UUAUAUAUAUCAGAUACCAGUAUAAUGGAAACAAAUUAUGUUAUGAGUGAUGUUCAUGUAUGCCCUUGGCAGCUGGUAUGGGUUU [KL-XTheo-B20],356,322,362,439,311
GCUAUGGUAGGAAGGAGCGCUUAAUUACUAAUAAGAGUGAUGUUCGAUAGUAGGUAUUUGUAGCAGGUAGGUCGCCUACUAUAGC [KL-Arg B24],264,174,444,230,215
CGCGCCCAGCCGGAUACCAGUGACCCGCUGGGAACCGCGGGCCCAGAGUGAUGUUCGGGACACCCUUGGCAGCCGCCUGGGCGAC [#2 Same State - Theophylline B Attempt #8 (HarryS)],993,378,1130,525,509
AGGUUUUGAUUAGGAUAUGCACUGACGACGAGAAUAUAGUGAUGUUAUAUACUACGAAUUAGUAGAGUAGAAGGGAUUGAGGUUU [SSFMNB.Y],344,265,330,322,245
GCUGUCCAGUUCGAUACCAGAGUUAUCGCACUGUAGUGAUAAAGUGAUGUUUUAUCAGUCCUCCCUUGGCAGCGAUGCCCGGCUG [theeternabot_exclusion_KL_Theo_B_25],164,151,166,165,154
CCGUAUGUCCACUAUUGAGUGAUGUUCAAGCGAGGACCGGUACGGCCGCCACUCGCGUUACCCACCACGUGUCGCCGCACUUACC [theeternabot_exclusion_KL_Trp_A_42],203,160,203,159,370
GUCUGUGUACUAGGAUAUGGUUGCAGACAGUCAGGUCGCCUUUUCGGCGGCCAGUGAUGUUGGUGGCCAGAAGGAGUACGUGAAG [Biririge],384,1580,1110,395,1480
AGCCGAAAGGCGAGUGCUGUCACUCCGGAAGGAGCGGCGAAAACGCCAGGUAGGUCGCCGGAGUGAUGUUCCGGUGCAGCACUCA [Omei KL Arginine A Exc B v2],603,410,932,521,492
AGUAAUAUCACGGCCGCCACUGAUUAUUGUUUUUAUAGUUAUAAAUCUUGCCAGUGAUGUUGGUUCAGGACCGGGUGAGUUAAUA [JR_SSTryptoB_Sub001],429,469,584,727,299
ACCUAGUAGACAGGAUAUCACGAUGACAGUGAUGUUGUCAUCAUCGAUUUGAGGAAACUCAGAUCGUGAGAAGGGUCUAACGACU [FMN B SS t7a],147,173,204,168,190
UGAUAGGACAGAAGGAGCGGAAGUGAUGUUUCCUAAAGGAUAAAGGUGUCAAAGACACCCUUCCAGGUAGGUCGCUGUCCUAUCU [ArgBX 16 #Palindromic #SwitchBubble #StaticStem],549,923,579,532,566
AUUACAUCUGAAAAGCUAGUGAUGUUAGCUCGAGGACCGGUACGGCCGCCACUCGCAUAGCGAGGCCAAGUCGCGGUUAACGGAG [theeternabot_exclusion_KL_Trp_A_4],96.7,86.7,97.2,89.1,83.3
AUUAAUUUCAGAGGAUAUCGUUAUUUUUUUAAGUAUAAUCUAUUAUGCAGUGAUGUUGCUAUUAAUCGAGAAGGCUGAUUUAUAA [JR_ExcFMNB_Sub001],114,141,79.5,134,78.5
UGGCGGACGAUCCGGAGUGAUGUUCCGGAUACCAGCAGAAGAGCCUGCCCUUGGCAGCCGUACGACGCUGGGAGAGUCCGGCGUC [Soteina],83.8,90.3,81.1,66.7,76.9
UUUUAUAACCGAAGGAGCGCGUGGGCGCAGUGAUGUUGCGCCCGACAUCACUUCAACUUAACGCAGGUAGGUCGCGGUUUUAAUG [Arginine B (Excl) V3],148,147,181,163,168
UUUCCAGAUAAGUGGGAACACUCCAUAACAGAGGAUAUCAGAGCGCUGAGAAGGCUGUUUAUCAGUGAUGUUGAUAGUGUGGAGU [FMN A SS t2a],171,660,671,786,630
CGAGUGAUGUUCGAAGAGUUGUUAAGCGAUACCAGCUAGGAAACUGGCCCUUGGCAGCGUAAUAAAUAAAUAAAUAAAUGAUCAC [whbob_Ex_Theo_A_th62],351,414,369,456,322
UGAUACCAGACGGCCGCCACUACACCAGUCAAAGACUGGAUGUGAAAUUCGACCAGUGAUGUUGGUAGGACCGGGUCUGGUAUCU [TrypBX 8 #SwitchBubble #StaticStem],383,313,379,347,591
AAAUCUUUCAGAAGGAGCGUGGAUUAUUCUUAUAUAUUUAUUACGAGUGAUGUUCGUAAUUCACAGGUAGGUCGCUGAUCAAUAA [JR_ExcArginiB_Sub006],87.5,105,91.1,109,89.8

Sequence,apparent KD of K4 kissing-loop reporter (input ligand: FMN 200 uM) [nM],apparent KD of K4 kissing-loop reporter (input ligand: arginine 13.2 mM) [nM],apparent KD of K4 kissing-loop reporter (input ligand: none) [nM],apparent KD of K4 kissing-loop reporter [1] [nM],apparent KD of K4 kissing-loop reporter [2] [nM]
GGGAGUAGUGCGGCCGCCACUGUGAAAGUAGAAGAAUAUAGUGAUGUUAUAUAGGAAUAAAAGAAUAGGACCGGGCAUUAGAUUU [SSTRyptB.V],190,215,212,249,168
CGCUUGCACGGAAGGAGCGUCCAAGCGAGACACGAGUGAUGUUCGUGAUCGACGUAAACUGGACAGGUAGGUCGCCGUGCUUAAU [Eresti],107,91,121,101,100
AAUGUACAAGUGAUGUUUGUACUUUCCGAAGGAGCGUCAAAUAAGACAGGUAGGUCGCGGAUACUCUAAAUAAUCAGGUCAUUAA [JR_ExcArginiA_Sub019],89.4,88,88.9,87.2,85
GAAUGAUAGUAAGGAUAUAGAUAAUCCUUAUAUAUAUCGAGUGAUGUUCGAUGUGGCAAGAUACAUCUAGAAGGUACUGUAAGGU [Same State FMN B GF 16],309,321,361,361,240
AUUUUUUACAGAAGGAGCGUGUUUUAAUAAUCAUGGUGCUUAGCGAGUGAUGUUCGCUUUACACAGGUAGGUCGCUGUUUAUUUA [JR_Nu_ExcArginiB_Sub030],120,113,127,112,112
AUUUUUUUAUCAGGAUAUUAGUGAUGGUUGUUUUUGUUAGUGAUGUUGAUAUUUGUUUUAUGUAUUUAAGAAGGGAUUGAGAUGU [zbbzmullin],68.1,24.7,42.9,31.7,49.7
GGAGCAGGUGAAGGAUAUCCCGGGCCAGAGUGAUGUUCUGGAUCCCUUGCCGUUUCUAAACGGGUGGGAGAAGGUCACUGAUAAG [Bibimati],132,154,234,180,164
GGAUAGGACGGAGGAUAUGGGCUAGGCAAGAAUAACUUGUCUAGCAAAUCCAUGAGGAGUGAUGUUCCAGAAGGUUGUCCUAUCG [FmnBX 1 G10+U75],167,94.7,85.2,106,75.4
CACCAUGAAUUCUCUAGGAGUGAUGUUUUUCGAGGACCGGUACGGCCGCCACUCGGACGAGGACCCUGGGAGCGGCGAAGCGGCU [nigmullin],235,104,238,246,150
GCCGUAGAUUGAAGGAGCGGUAUGGGCGUUGGCUGAGUGAUGUUCAGGGAAAGUGGCUUCUACCAGGUAGGUCGCAAUCUACGGC,164,129,157,170,137
AAUAAAAGAUGUUUAGGAAAGAAAAUGGAAGGAGCGUGCGAAAGCACAGGUAGGUCGCCAGUGAUGUUGGAACCUGAGCAUCAAA [#SwitchBubble 15 #K4Late],827,479,699,677,436
AGUGUUUGGUUAGAUACCAGCCGUCUGUGGAUAAUCCUCAGACCGCCAGUGAUGUUGGCAGGCCCUUGGCAGCUAACAGGACAGA [Ersoed],198,213,275,233,224
GUAGACGUACCUUCAGUGAUGUUGAAGGAUACCAGAUGUUACCACAUCCCUUGGCAGCCUUGGGAUAACAGUGAGUUGGAAUAUG [Usrite],182,137,172,156,150
UUAGGAGUGGGAGGAUAUCCUAAUAUGGGUGAUGUUAGCGAUGUUGAAAGUGUAGUGAUGUUGUGCGGAGAAGGUCCAGUGUUGA [BDazzled - #13 - Exc. FMN B],196,126,178,222,161
UACGCCACAGACGUGGAGUACCUUGGGUCGAAGGAUAUCAGCAUUGUGAGAAGGUCGCCGAUUCUAAGUGAUGUUUAGAUCAGGG [theeternabot_sameState_KL_FMN_A_2],132,275,446,567,409
UCGAUAGAGAGUGAUGUUCUCGUAUCAGAUACCAGUCACGCGAGUGACCCUUGGCAGCUGAUGUACAGCUGAGAGUAGUAUUCGA [Theo A Ex t8],90.1,104,90.5,129,89.6
CAGAUGUAGGCGGCCGCCACUCUCAUUACCGUACGCAAGUAUGAUUAGAAGUGAUGUUUCUCGGUGAGGACCGGGCCAUUCCCGA [theeternabot_sameState_KL_Trp_B_27],690,551,670,672,545
AAGUGUCAUUAGACACACCGAUGUAUAAACUAGGAUAUGCUGAUAAGCAGAAGGAGUGAUGUUCCUUUCAUCAUCGGAAUUAAAU [#06 K4 FMN A Exclusion],301,161,160,175,144
CCAAUCUUUUACGAUACCAGUCUAAUAUAUUUAAUCAAAACCCUCGCCGAGUGAUGUUCGGACCCUUGGCAGCGUUUGCGAGAGG [xssgstkmullin],656,365,543,452,424
GCUAGCAAUGCAGGAUAUUAAAACGAGUGAUGUUCGGUACCGAGGAUGGGAAACCAUCCUCGGUAAUAAGAAGGGCAUUGCUAGC,210,182,194,211,172
UGGUUUAACUGAAGGAGCGGCAAUUGAUAAGUAGAUAUAGUGAUGUUAUAUAAGAUAGAGAGCCAGGUAGGUCGCAGAGGUAUUU [ExArgB.P],215,218,212,248,197
